Measurements taken from patent publication US20060153850A1.

Legend:
[1] = molecular target: human M-CSF (macrophage colony stimulating factor) (human) (UniProt P09603); assay: cell-based or functional assay
[2] = molecular target: human M-CSF (macrophage colony stimulating factor) (human) (UniProt P09603); assay: c-fms receptor binding inhibition assay: antibody varied, 125I-M-CSF binding to c-fms-bearing cells

B1: monoclonal antibody 9.7.2 (antibody, human IgG4, kappa, V domains shown)
VH: QVQLVESGGGLVKPGGSLRLSCAASGFTFSDYYMSWIRQAPGKGLEWVSYISSSGSTIYYADSVKGRFTISRDNAKNSLYLQMNSLRAEDTAVYYCARRIGGMDVWGQGTTVTVSS
VL: DIQMTQSPSSLSASVGDRVTITCRASQSISGFLIWYQQRPGKAPKLLIYATSSLQSGVPLRFSGSESGTDFTLTISSLQPEDFATYYCQQSYSTPFTFGPGTKVDIKR
Human Whole Blood Monocyte Activation Assay [IC50, M] [1]: 1.98e-10 M
M-CSF Mouse Monocytic Cell Proliferation Assay [IC50, M] [1]: 7.37e-10 M
IC50 [2]: 0.006 nM
